In US20140120091A1 (University of Washington, published 2014):

T1: recombinant human CD40L (Peprotech, Catalog #310-02) (human, UniProt P29965 113-261)
T1 construct: Bought reagent; also called rCD40L; immobilized CD40L
T1 sequence (looked up): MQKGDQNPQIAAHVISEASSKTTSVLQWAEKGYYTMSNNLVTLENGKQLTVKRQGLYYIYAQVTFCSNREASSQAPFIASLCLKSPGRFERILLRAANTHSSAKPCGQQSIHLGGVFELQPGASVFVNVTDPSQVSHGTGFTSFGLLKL

T2: human CD40 ligand (CD40L, CD154) expressed on human Jurkat cells (human, UniProt P29965 1-261)
T2 construct: whole, on cells; also called CD40L on Jurkat cells; CD154 (CD40L) expressed on the surface of Jurkat cells
T2 sequence (looked up): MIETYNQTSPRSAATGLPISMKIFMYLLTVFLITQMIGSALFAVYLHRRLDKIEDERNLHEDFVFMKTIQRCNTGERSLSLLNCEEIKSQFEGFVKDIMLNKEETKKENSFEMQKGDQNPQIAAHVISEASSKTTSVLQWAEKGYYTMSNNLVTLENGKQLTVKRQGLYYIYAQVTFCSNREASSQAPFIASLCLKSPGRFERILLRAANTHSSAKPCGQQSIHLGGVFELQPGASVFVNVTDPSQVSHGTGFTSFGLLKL


Columns and labels:
[1] = biological target: T1, recombinant human CD40L (Peprotech, …); assay: CD40L antigen binding ELISA normalised to IgG sandwich ELISA, COS supernatants
Method: Coated plates were washed twice in wash buffer: (PBS/0.05% Tween-20/0.01% Kathon), and blocked overnight at 4° C. in 200 ul/well PBS/2.5% BSA. Blocked plates were washed three times in wash buffer, and serial dilutions of each culture supernatant in (D-PBS, 0.2% BSA) added to successive wells in each plate: (20×, 40×, 80×, and 160× of each supernatant). Supernatant dilutions were incubated overnight at 4° C. Plates were washed three times in wash buffer, then incubated with HRP (horseradish peroxidase) conjugated goat anti-human IgG (Fc specific) (Catalog #109-036-008, Jackson Immunoresearch, West Grove, Pa.) at a 1:7,500 dilution in PBS for 1-2 hours at room temperature. Plates were washed 4-5 times in wash buffer, then 80 ul/well TMB Sureblue peroxidase substrate was added (Catalog #52-00-02, KPL Laboratories, Gaithersburg, Md.). Color was allowed to develop for 5-15 minutes, and reactions stopped by addition of 80 ul/well 1 N HCL. Plates were read using a Biotek SYNERGY® 2 (Biotek Instruments, Winooski, Vt.) plate reader at […], and data analyzed with Gen5 v2 software.

[2] = biological target: T3, recombinant human PCSK9-his6 (AcroBiosystems, Catalog # PC9-H5223) (human, UniProt Q8NBP7 31-692); assay: PCSK9 antigen binding ELISA, fusion protein immobilized, PCSK9-his6 in solution, HRP anti-his6 detection
T3 construct: Bought reagent; also called PCSK9-his6 antigen; PCSK9-his 6 antigen; not shown: his6 tag
T3 sequence (Q8NBP7 31-692 limits assumed): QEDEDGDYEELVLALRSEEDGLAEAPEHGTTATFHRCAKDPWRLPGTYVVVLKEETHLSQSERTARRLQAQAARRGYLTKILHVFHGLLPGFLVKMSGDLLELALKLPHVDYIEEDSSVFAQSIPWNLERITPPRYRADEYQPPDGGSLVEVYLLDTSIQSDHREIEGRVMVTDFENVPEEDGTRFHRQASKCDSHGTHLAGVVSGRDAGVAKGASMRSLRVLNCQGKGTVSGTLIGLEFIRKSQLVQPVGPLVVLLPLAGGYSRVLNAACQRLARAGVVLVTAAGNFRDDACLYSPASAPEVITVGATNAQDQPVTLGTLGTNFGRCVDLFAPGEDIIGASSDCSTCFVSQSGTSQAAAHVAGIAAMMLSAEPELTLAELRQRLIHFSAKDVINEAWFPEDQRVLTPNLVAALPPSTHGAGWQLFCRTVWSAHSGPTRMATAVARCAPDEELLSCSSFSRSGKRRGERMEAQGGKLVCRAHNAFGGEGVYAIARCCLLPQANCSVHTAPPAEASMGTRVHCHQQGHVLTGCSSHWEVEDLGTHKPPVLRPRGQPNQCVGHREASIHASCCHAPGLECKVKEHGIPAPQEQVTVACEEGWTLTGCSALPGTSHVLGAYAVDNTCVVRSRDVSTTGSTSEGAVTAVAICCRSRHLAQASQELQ

[3] = biological target: T2, human CD40 ligand (CD40L, CD154) …; assay: flow cytometry, serial dilutions of purified fusion protein on Jurkat cells, AF647 goat anti-human IgG detection

binding result [1]	binding result [2]	binding result [3]	Binder
binds	–	–	CD40 EC-Ig fusion protein, mutant E64S K81H L121P (Fc fusion, COS7 culture supernatant; not shown: human IgG Fc tail) EPPTACREKQYLINSQCCSLCQPGQKLVSDCTEFTETECLPCGSSEFLDTWNRETHCHQHHYCDPNLGLRVQQKGTSETDTICTCEEGWHCTSEACESCVPHRSCSPGFGVKQIATGVSDTICEPCPVGFFSNVSSAFEKCHPWTSCETKDLVVQQAGTNKTDVVCGP
binds	–	–	CD40 EC-Ig fusion protein, mutant E64Y K81T P85Y (Fc fusion, COS7 culture supernatant; also called triple mutant E64Y K81T P85Y; not shown: human IgG Fc tail) EPPTACREKQYLINSQCCSLCQPGQKLVSDCTEFTETECLPCGYSEFLDTWNRETHCHQHTYCDYNLGLRVQQKGTSETDTICTCEEGWHCTSEACESCVLHRSCSPGFGVKQIATGVSDTICEPCPVGFFSNVSSAFEKCHPWTSCETKDLVVQQAGTNKTDVVCGP
–	no binding	binds	hCD40-4s EC-mthIgG (Fc fusion, also called human (h)CD40-SSSH-mthIgG1; hCD40mthIgG) EPPTACREKQYLINSQCCSLCQPGQKLVSDCTEFTETECLPCGESEFLDTWNRETHCHQHKYCDPNLGLRVQQKGTSETDTICTCEEGWHCTSEACESCVLHRSCSPGFGVKQIATGVSDTICEPCPVGFFSNVSSAFEKCHPWTSCETKDLVVQQAGTNKTDVVCGPDLSGGGGSGGGGSGGGGSGGGGSTGLEPKSSDKTHTSPPSPAPELLGGSSVFLFPPKPKDTLMISRTPEVTCVVVDVSHEDPEVKFNWYVDGVEVHNAKTKPREEQYNSTYRVVSVLTVLHQDWLNGKEYKCKVSNKALPASIEKTISKAKGQPREPQVYTLPPSRDELTKNQVSLTCLVKGFYPSDIAVEWESNGQPENNYKTTPPVLDSDGSFFLYSKLTVDKSRWQQGNVFSCSVMHEALHNHYTQKSLSLSPGK
